Columns and labels:
Experiment in all cases: native gel or EMSA
[1] = molecular target: AcK-pro-PanD variant with acetyl-lysine at position 9 (S. enterica)
[2] = molecular target: AcK-pro-PanD variant with acetyl-lysine at position 14 (S. enterica)
[3] = molecular target: AcK-pro-PanD variant with acetyl-lysine at position 53 (S. enterica)
[4] = molecular target: AcK-pro-PanD variant with acetyl-lysine at position 104 (S. enterica)
[5] = molecular target: AcK-pro-PanD variant with acetyl-lysine at position 115 (S. enterica)
[6] = molecular target: AcK-pro-PanD variant with acetyl-lysine at position 119 (S. enterica)
[7] = molecular target: pro-PanD (wild type), made from a plasmid in S. enterica ΔpanM (S. enterica)

In the case of “AcK-pro-PanD variant with acetyl-lysine at position 9 (natural protein)”, the stoichiometry N [1] is reported as 4.

Work on “AcK-pro-PanD variant with acetyl-lysine at position 14 (natural protein)” yielded a stoichiometry N [2] of 4.

“AcK-pro-PanD variant with acetyl-lysine at position 53 (natural protein)” showed a stoichiometry N [3] of 4.

“AcK-pro-PanD variant with acetyl-lysine at position 104 (natural protein)” was tested, and the stoichiometry N [4] was 4.

“AcK-pro-PanD variant with acetyl-lysine at position 115 (natural protein)” gave a stoichiometry N [5] of 4.

Work on “AcK-pro-PanD variant with acetyl-lysine at position 119 (natural protein)” yielded a stoichiometry N [6] of 4.

In the case of “pro-PanD (wild type), made from a plasmid in S. enterica ΔpanM (natural protein)”, the stoichiometry N [7] is reported as 4.

Source: paper PMC3398536
